# Experimental data: patent publication US9051581B2, “Defense peptides against fungal infection and method of their use” (The Curators of the University of Missouri, priority 2010, dated 2015)
# B1: ZmCKX1-Sp39: peptide Sp39 fused to the C-terminus of the scaffold protein ZmCKX1, expressed in Pichia pastoris (protein)
# chain: LAAGTPALGDDRGRPWPASLAALALDGKLRTDSNATAAASTDFGNITSALPAAVLYPSSTGDLVALLSAANSTPGWPYTIAFRGRGHSLMGQAFAPGGVVVNMASLGDAAAPPRINVSADGRYVDAGGEQVWIDVLRASLARGVAPRSWNDYLYLTVGGTLSNAGISGQAFRHGPQISNVLEMDVITGHGEMVTCSKQLNADLFDAVLGGLGQFGVITRARIAVEPAPARARWVRFVYTDFAAFSADQERLTAPRPGGGGASFGPMSYVEGSVFVNQSLATDLANTGFFTDADVARIVALAGERNATTVYSIEATLNYDNATAAAAAVDQELASVLGTLSYVEGFAFQRDVAYAAFLDRVHGEEVALNKLGLWRVPHPWLNMFVPRSRIADFDRGVFKGILQGTDIVGPLIVYPLNKSMWDDGMSAATPSEDVFYAVSLLFSSVAPNDLARLQEQNRRILRFCDLAGIQYKTYLARHTDRSDWVRHFGAAKWNRFVEMKNKYDPKRLLSPGQDIFNYNKPSFQDHSVI
# B2: ZmCKX1: recombinant maize cytokinin oxidase scaffold without peptide insert, control (protein)
# chain: LAAGTPALGDDRGRPWPASLAALALDGKLRTDSNATAAASTDFGNITSALPAAVLYPSSTGDLVALLSAANSTPGWPYTIAFRGRGHSLMGQAFAPGGVVVNMASLGDAAAPPRINVSADGRYVDAGGEQVWIDVLRASLARGVAPRSWNDYLYLTVGGTLSNAGISGQAFRHGPQISNVLEMDVITGHGEMVTCSKQLNADLFDAVLGGLGQFGVITRARIAVEPAPARARWVRFVYTDFAAFSADQERLTAPRPGGGGASFGPMSYVEGSVFVNQSLATDLANTGFFTDADVARIVALAGERNATTVYSIEATLNYDNATAAAAAVDQELASVLGTLSYVEGFAFQRDVAYAAFLDRVHGEEVALNKLGLWRVPHPWLNMFVPRSRIADFDRGVFKGILQGTDIVGPLIVYPLNKSMWDDGMSAATPSEDVFYAVSLLFSSVAPNDLARLQEQNRRILRFCDLAGIQYKTYLARHTDRSDWVRHFGAAKWNRFVEMKNKYDPKRLLSPGQDIFN
# B3: ZmCKX1-Sp2: peptide Sp2 fused to the C-terminus of the scaffold protein ZmCKX1, expressed in Pichia pastoris (protein)
# chain: LAAGTPALGDDRGRPWPASLAALALDGKLRTDSNATAAASTDFGNITSALPAAVLYPSSTGDLVALLSAANSTPGWPYTIAFRGRGHSLMGQAFAPGGVVVNMASLGDAAAPPRINVSADGRYVDAGGEQVWIDVLRASLARGVAPRSWNDYLYLTVGGTLSNAGISGQAFRHGPQISNVLEMDVITGHGEMVTCSKQLNADLFDAVLGGLGQFGVITRARIAVEPAPARARWVRFVYTDFAAFSADQERLTAPRPGGGGASFGPMSYVEGSVFVNQSLATDLANTGFFTDADVARIVALAGERNATTVYSIEATLNYDNATAAAAAVDQELASVLGTLSYVEGFAFQRDVAYAAFLDRVHGEEVALNKLGLWRVPHPWLNMFVPRSRIADFDRGVFKGILQGTDIVGPLIVYPLNKSMWDDGMSAATPSEDVFYAVSLLFSSVAPNDLARLQEQNRRILRFCDLAGIQYKTYLARHTDRSDWVRHFGAAKWNRFVEMKNKYDPKRLLSPGQDIFNMLESHAWPPRAI
# Key:
# [1] = test system: Phakopsora pachyrhizi urediniospores; assay: In vitro inhibition of urediniospore germ tube growth by ZmCKX1-peptides; assay type: cell-based; conditions: for reduction of average germ tube length in comparison to water: 58 μM; for reduction of average germ tube length in comparison to water / decrease of germ tube growth in comparison to water: 8 h incubation; for decrease of germ tube growth in comparison to water: 230 μM (highest concentration)
# Method: Purified ZmCKX1-Sp2 and ZmCKX1-Sp39 peptides were assessed in vitro for the ability to inhibit urediniospore germination. A 25-μl water droplet containing 300 freshly harvested MOS-2008 urediniospores was incubated on a glass slide in the presence of either ZmCKX1-Sp2 or ZmCKX1-Sp39. Control treatments included urediniospores incubated in water or in the presence of ZmCKX1 alone. Germ tube growth was visualized over time and quantified by image capture and analyses as described previously.
# [2] = test system: Phakopsora pachyrhizi urediniospores; assay: Inhibition of soybean leaf infection (rust lesion formation) by ZmCKX1-peptides; assay type: in vivo; conditions: 7 days of incubation; 115 μM; water close to 50%
# Method: Young, fully expanded leaves were excised from soybean plants (Williams 82) and used for assessment of ZmCKX1-peptide inhibition. Two 10-μl droplets of each ZmCKX1-peptide-urediniospore mixture or control treatment were applied to the upper surface of a single leaf. Each droplet contained 50 urediniospores mixed with either ZmCKX1-Sp2 or ZmCKX1-Sp39 at a final concentration of 115 μM. Control treatments included urediniospores in water or mixed with 115 μM ZmCKX1. Droplet treatments were replicated four times.
# Inoculated leaves were incubated for 8 h before rinsing away droplets and drying as described previously. Leaves were transferred to sealed Petri dishes and incubated in a growth chamber at 22° C. and 90% RH, under a 12 h light/dark cycle. The percentage of inoculations that produced rust lesions was recorded at 3 to 4 day intervals for 27 days.
# [3] = test system: 20 kDa Phakopsora pachyrhizi protein; assay: Far-western assay for P. pachyrhizi proteins that bind the peptides; assay type: binding; conditions: protein from germinated urediniospores; bait protein, ZmCKX1 antibody detection
# Method: A far-western assay was used to identify P. pachyrhizi proteins that bind to the disclosed peptides (3, 35). To prepare fungal proteins, MOS-2008 urediniospores were germinated and grown for 4 h. Fungal tissues were ground in liquid nitrogen and suspended in phosphate buffer (pH. 6.5) containing 0.1 M mannitol and Tween-20. Fungal debris was separated from soluble material by centrifugation, and the protein concentration of the soluble fraction was determined. Equal amounts of protein were loaded into the wells of an acrylamide gel, separated by SDS-PAGE, and then transferred to PVDF membrane. The membranes were incubated with a bait protein that consisted of the ZmCKX1 scaffold alone, ZmCKX1-Sp2, or ZmCKX1-Sp39. The unbound bait proteins were washed off of the blot, and the blot was incubated with ZmCKX1 polyclonal antibody (1), followed by a second antibody, anti-rabbit IgG conjugated to alkaline phosphatase (Promega, Madison, Wis.).
Molecule,reduction of average germ tube length in comparison to water [1] [%],decrease of germ tube growth in comparison to water [1] [%],inoculations that produced lesions [2] [%],detection of fungal protein band in far-western blot [3],"germ tube growth inhibition ([1]; all concentrations except 230 μM, 8 h)"
B1,36,91,16,specifically interacted with a fungal protein approximately 20 kDa in size,
B2,,26,,absent,less than 10%
B3,52,94,13,specifically interacted with a fungal protein approximately 20 kDa in size,
